Results on 16 molecules are retold here after patent US20240252635A1 (Genmab, published 2024).

What is called EC50 is the concentration needed to bring the measured effect to its halfway point.

Changes are numbered by the printed parent chain. Names and notes keep the numbering of the source.

Experiment [1] has as its target T1, human CD37 (human (Homo sapiens), UniProt P11049 1-281).
T1 construct: Endogenous on Daudi cells, Raji cells and human blood B cells; also called Leukocyte Antigen CD37; GP52-40
T1 sequence: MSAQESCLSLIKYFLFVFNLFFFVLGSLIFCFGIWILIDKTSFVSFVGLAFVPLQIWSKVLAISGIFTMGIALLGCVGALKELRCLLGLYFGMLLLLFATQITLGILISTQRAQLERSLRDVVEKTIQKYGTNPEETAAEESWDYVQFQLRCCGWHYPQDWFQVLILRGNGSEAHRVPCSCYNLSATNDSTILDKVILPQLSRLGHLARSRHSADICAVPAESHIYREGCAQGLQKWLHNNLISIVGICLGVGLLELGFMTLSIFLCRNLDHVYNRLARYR
In words: flow cytometry on Daudi cells. As to the method: (§1) Binding to cell surface expressed CD37 (Daudi cells, CHO cells expressing cynomolgus CD37) was determined by flow cytometry. Cells, resuspended in RPMI containing 0.2% BSA, were seeded at 100,000 cells/well in polystyrene 96 well round-bottom plates (Greiner bio-one Cat #650101) and centrifuged for 3 minutes at 300×g, 4° C. Serial dilutions (0.003-10 μg/mL final antibody concentration in 3.33× serial dilutions) of CD37 or control antibodies were added and cells were incubated for 30 minutes at 4° C. Plates were washed/centrifuged twice using FACS buffer (PBS/0.1% BSA/0.01% Na-Azide). Next, cells were incubated for 30 minutes at 4° C. with R-Phycoerythrin (PE)-conjugated goat-anti-human IgG F(ab′)2 (Jackson ImmunoResearch Laboratories, Inc., West Grove, PA; cat #: 109-116-098) diluted 1/100 in PBS/0.1% BSA/0.01% Na-Azide. Cells were washed/centrifuged twice using FACS buffer, resuspended in 30 μL FACS buffer and analyzed by determining mean fluorescent intensities using an Intellicyt iQue™ screener (Westburg). Binding curves were generated using non-linear regression (sigmoidal dose-response with variable slope) analyses within GraphPad Prism V6.04 software (GraphPad Software, Sand Diego, CA, USA).
(In general: Flow cytometry measures light scatter and fluorescence of single cells or particles in a stream.)

Experiment [2] deals with T2, cynomolgus monkey CD37 (cynomolgus monkey (Macaca fascicularis), UniProt P11049 1-281 (human entry)).
T2 construct: also called mfCD37; cynomolgus CD37
T2 chain: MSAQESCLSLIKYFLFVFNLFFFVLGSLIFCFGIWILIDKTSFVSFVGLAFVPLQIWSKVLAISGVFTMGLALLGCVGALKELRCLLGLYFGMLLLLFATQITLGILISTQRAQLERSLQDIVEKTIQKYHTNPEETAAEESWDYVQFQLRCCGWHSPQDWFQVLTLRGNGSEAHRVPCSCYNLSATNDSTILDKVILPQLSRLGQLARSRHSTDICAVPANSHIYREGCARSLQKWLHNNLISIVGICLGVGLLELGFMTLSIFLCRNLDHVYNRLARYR
In words: flow cytometry on CHO cells expressing cynomolgus monkey CD37. The method, then: as §1
Binding to CHO cells expressing cynomolgus monkey CD37 was determined by flow cytometry using a method as described above.

In experiment [3] the target is T1, human CD37. Kind of experiment: flow cytometry, Alexa-488 labeled antibody on B cells in human whole blood; average of 6 donors. The method, then: (§2) Binding to human or cynomolgus monkey B cells was determined in a whole blood binding assay. Heparin-treated human blood from healthy volunteers was derived from UMC Utrecht (Utrecht, The Netherlands), hirudin-treated blood from cynomolgus monkeys was derived from Covance (Münster, Germany). Blood was aliquoted to wells of a 96-well round-bottom plate (Greiner Bio-one, cat. no. 65010; 35 μL/well). Red blood cells (RBC) were lysed by addition of 100 μL RBC lysis buffer (10 mM KHCO₃ [Sigma P9144], 0.1 mM EDTA [Fluka 03620] and […] NH₄CL [Sigma A5666]) and incubated on ice until RBC lysis was complete.
(§3) Cells were pelleted and washed twice in 150 μL FACS buffer and resuspended in 150 μL TO-PRO-3 (end concentration 0.2 μM; Molecular Probes, cat no. T3605). Samples were measured by flow cytometry using an LSRFortessa flow cytometer. Binding is expressed as geometric mean of A488 fluorescence intensity for viable TO-PRO-3⁻/CD14⁻/CD19⁺ B-cells (human) or viable TO-PRO-3⁻/CD14⁻/CD19⁺/CD20⁺ B-cells (cynomolgus monkey). Log-transformed data were analyzed using best-fit values of a non-linear dose-response fit in GraphPad PRISM.

Experiment [4] deals with T2, cynomolgus monkey CD37. In words: flow cytometry, Alexa-488 labeled antibody on B cells in cynomolgus monkey whole blood; average of 4 animals. As to the method: as §2, §3

B1: IgG1-004-H5L2 (antibody)
heavy: not shown
light: AQVLTQSPSPLSASVGDRVTITCQASQSVYNSQNLAWYQQKPGKAPKLLIYEASKLASGVPSRFKGSGSGTEFTLTISSLQPDDFATYYCQGEFSCISADCTAFGGGTKVEIKRTVAAPSVFIFPPSDEQLKSGTASVVCLLNNFYPREAKVQWKVDNALQSGNSQESVTEQDSKDSTYSLSSTLTLSKADYEKHKVYACEVTHQGLSSPVTKSFNRGEC
In the case of B1, the binding result in the experiment with human CD37 [1] is listed as “binds”.

B2: IgG1-004-H5L2-E430G (antibody)
heavy: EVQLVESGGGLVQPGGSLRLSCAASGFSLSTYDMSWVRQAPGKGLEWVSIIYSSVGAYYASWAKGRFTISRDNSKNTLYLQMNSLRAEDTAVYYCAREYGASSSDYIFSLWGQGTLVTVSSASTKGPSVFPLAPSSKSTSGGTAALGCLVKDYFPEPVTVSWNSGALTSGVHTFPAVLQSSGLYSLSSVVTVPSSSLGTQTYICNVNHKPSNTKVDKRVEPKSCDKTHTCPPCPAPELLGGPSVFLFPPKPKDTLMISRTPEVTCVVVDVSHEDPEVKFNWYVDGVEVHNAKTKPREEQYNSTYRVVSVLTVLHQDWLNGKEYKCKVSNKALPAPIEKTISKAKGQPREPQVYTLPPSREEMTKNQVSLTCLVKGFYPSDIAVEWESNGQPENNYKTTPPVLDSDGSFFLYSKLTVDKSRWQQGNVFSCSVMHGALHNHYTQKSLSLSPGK
light: B1 light
notes: IgG1,kappa with E430G (EU numbering)
With B2, the binding result with human CD37 [1] and in the experiment with cynomolgus monkey CD37 [2] was “binds” throughout.

B3: IgG1-005-H1L2-E430G (antibody)
heavy: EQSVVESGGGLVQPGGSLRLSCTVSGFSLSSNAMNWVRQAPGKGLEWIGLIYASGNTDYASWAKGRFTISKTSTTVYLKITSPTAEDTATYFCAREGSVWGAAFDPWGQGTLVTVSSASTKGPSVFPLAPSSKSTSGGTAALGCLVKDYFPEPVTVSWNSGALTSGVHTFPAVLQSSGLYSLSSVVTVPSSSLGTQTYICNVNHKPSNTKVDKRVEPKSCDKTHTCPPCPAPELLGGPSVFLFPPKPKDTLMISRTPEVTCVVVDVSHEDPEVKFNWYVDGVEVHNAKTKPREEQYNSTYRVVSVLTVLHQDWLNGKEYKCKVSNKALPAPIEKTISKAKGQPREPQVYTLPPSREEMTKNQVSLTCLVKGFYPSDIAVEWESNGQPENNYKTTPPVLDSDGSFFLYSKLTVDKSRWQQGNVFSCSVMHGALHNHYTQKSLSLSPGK
light: AYDMTQSPSSVSASVGDRVTITCQASQSISNWLAWYQQKPGKAPKQLIYAASTLASGVPSRFKGSGSGTDFTLTISSLQPEDFATYYCQQGYSNSNIDNTFGGGTKVEIKRTVAAPSVFIFPPSDEQLKSGTASVVCLLNNFYPREAKVQWKVDNALQSGNSQESVTEQDSKDSTYSLSSTLTLSKADYEKHKVYACEVTHQGLSSPVTKSFNRGEC
notes: IgG1,kappa with E430G
In the case of B3, the binding result with human CD37 [1] and in the experiment with cynomolgus monkey CD37 [2] was “binds” each time.

B4: IgG1-005-H1L2-K409R-E430G (antibody)
heavy: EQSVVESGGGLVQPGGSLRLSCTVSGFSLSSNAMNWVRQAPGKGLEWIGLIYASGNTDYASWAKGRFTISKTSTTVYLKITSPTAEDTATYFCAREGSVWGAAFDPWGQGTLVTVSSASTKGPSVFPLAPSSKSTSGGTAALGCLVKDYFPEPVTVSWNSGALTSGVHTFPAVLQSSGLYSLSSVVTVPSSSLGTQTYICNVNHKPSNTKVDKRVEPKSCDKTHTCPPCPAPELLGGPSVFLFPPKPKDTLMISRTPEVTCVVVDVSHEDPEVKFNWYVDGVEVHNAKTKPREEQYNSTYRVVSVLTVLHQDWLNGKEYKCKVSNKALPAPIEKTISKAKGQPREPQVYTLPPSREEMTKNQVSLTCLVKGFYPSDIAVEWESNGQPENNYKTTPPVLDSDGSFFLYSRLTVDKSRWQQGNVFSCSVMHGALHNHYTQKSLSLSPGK
light: B3 light
notes: IgG1,kappa with K409R and E430G
For the molecule B4, the binding result with human CD37 [1] was “binds”.

B5: IgG1-005-H1L2 (antibody)
heavy: not shown
light: B3 light
notes: Humanized, IgG1,kappa
For the molecule B5, in the experiment with human CD37 [1], the binding result was “binds”.

B6: IgG1-016-H5L2-E430G (antibody)
heavy: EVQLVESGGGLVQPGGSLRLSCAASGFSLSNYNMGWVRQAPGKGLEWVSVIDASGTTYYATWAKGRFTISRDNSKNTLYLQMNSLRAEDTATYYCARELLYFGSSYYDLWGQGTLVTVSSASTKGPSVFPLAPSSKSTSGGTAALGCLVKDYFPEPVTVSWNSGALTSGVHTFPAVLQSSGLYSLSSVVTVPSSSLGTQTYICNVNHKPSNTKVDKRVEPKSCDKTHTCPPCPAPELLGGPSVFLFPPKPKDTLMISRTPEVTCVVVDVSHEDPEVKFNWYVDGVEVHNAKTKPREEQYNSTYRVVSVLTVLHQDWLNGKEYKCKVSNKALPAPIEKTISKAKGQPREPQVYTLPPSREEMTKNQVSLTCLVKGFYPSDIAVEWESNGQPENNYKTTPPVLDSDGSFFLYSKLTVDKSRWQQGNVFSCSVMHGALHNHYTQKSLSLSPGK
light: DVVMTQSPSTLSASVGDRVTITCQASQNIDSNLAWYQQKPGKAPKFLIYYASNLPFGVPSRFKGSGSGTEFTLTISSLQPDDFATYYCQCADVGSTYVAAFGGGTKVEIKRTVAAPSVFIFPPSDEQLKSGTASVVCLLNNFYPREAKVQWKVDNALQSGNSQESVTEQDSKDSTYSLSSTLTLSKADYEKHKVYACEVTHQGLSSPVTKSFNRGEC
notes: IgG1,kappa with E430G
On to B6, for which the binding result with human CD37 [1] and with cynomolgus monkey CD37 [2] was “binds” throughout.

B7: bsIgG1-016-H5L2-LC90S-F405L-E430Gx010-H5L2-K409R-E430G (bispecific antibody)
heavy 1: not shown
light 1: B6 light with C90S
heavy 2: not shown
light 2: AYDMTQSPSTLSASVGDRVTITCQASQNIIDYLAWYQQKPGKAPKLLIHKASTLASGVPSRFKGSGSGTEFTLTISSLQPDDFATYYCQQGYSNSNIDNTFGGGTKVEIKRTVAAPSVFIFPPSDEQLKSGTASVVCLLNNFYPREAKVQWKVDNALQSGNSQESVTEQDSKDSTYSLSSTLTLSKADYEKHKVYACEVTHQGLSSPVTKSFNRGEC
notes: also called bispecific CD37 antibody
On to B7, for which the results for the EC50 in the experiment with human CD37 [3] and with cynomolgus monkey CD37 [4] were 0.85 µg/mL and 0.63 µg/mL, respectively.

B8: IgG1-016-H5L2 (antibody)
heavy: not shown
light: B6 light
notes: Humanized, IgG1,kappa
With B8, the binding result with human CD37 [1] is given as “binds”.

B9: IgG1-016-H5L2-F405L-E430G (antibody)
heavy: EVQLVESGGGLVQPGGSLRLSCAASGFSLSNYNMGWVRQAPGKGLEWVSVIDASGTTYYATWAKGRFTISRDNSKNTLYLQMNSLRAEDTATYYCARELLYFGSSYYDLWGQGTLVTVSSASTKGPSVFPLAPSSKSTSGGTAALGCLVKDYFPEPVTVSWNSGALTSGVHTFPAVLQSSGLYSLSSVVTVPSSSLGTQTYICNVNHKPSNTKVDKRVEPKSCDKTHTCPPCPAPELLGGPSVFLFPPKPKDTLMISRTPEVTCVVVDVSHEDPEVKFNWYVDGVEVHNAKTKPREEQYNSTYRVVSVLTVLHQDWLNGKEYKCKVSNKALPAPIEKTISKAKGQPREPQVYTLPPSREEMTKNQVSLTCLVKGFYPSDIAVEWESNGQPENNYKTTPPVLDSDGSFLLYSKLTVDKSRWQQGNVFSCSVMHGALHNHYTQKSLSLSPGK
light: B6 light
notes: IgG1,kappa with F405L and E430G
As for B9, the binding result with human CD37 [1] is reported as “binds”.

B10: IgG1-016-H5L2-LC90S-F405L-E430G (antibody, V domains shown)
VH: EVQLVESGGGLVQPGGSLRLSCAASGFSLSNYNMGWVRQAPGKGLEWVSVIDASGTTYYATWAKGRFTISRDNSKNTLYLQMNSLRAEDTATYYCARELLYFGSSYYDLWGQGTLVTVSS
VL: DVVMTQSPSTLSASVGDRVTITCQASQNIDSNLAWYQQKPGKAPKFLIYYASNLPFGVPSRFKGSGSGTEFTLTISSLQPDDFATYYCQSADVGSTYVAAFGGGTKVEIKR
notes: light chain carries C90S; also called D1; IgG1-3009-016-H5L2-F405L-E430G-LC90S
For B10, the binding result in the experiment with human CD37 [1] is on record as “binds”.

B11: IgG1-G28.1 (antibody)
heavy: not shown
light: DIQMTQSPASLSASVGETVTITCRTSENVYSYLAWYQQKQGKSPQLLVSFAKTLAEGVPSRFSGSGSGTQFSLKISSLQPEDSGSYFCQHHSDNPWTFGGGTELEIKRTVAAPSVFIFPPSDEQLKSGTASVVCLLNNFYPREAKVQWKVDNALQSGNSQESVTEQDSKDSTYSLSSTLTLSKADYEKHKVYACEVTHQGLSSPVTKSFNRGEC
notes: IgG1,kappa
Regarding B11, the binding result was “binds” in the experiment with human CD37 [1] and “no binding (tested: 0.003-10 µg/mL)” in the experiment with cynomolgus monkey CD37 [2].

B12: IgG1-G28.1-E430G (antibody)
heavy: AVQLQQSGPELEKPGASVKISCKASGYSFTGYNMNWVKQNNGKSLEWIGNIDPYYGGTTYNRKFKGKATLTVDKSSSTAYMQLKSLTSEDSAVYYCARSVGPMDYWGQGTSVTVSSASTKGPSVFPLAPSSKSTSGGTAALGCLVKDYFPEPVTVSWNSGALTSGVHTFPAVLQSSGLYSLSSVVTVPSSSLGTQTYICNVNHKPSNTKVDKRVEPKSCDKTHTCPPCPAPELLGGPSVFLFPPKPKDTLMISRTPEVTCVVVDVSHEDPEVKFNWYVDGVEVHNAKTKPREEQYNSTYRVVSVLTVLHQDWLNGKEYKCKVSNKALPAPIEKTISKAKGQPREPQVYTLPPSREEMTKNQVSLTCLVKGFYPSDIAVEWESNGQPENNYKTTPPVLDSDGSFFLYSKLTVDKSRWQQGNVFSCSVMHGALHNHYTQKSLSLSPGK
light: B11 light
notes: IgG1,kappa with E430G
B12: the binding result with human CD37 [1] is recorded as “binds”; in the experiment with cynomolgus monkey CD37 [2] it was “no binding (tested: 0.003-10 µg/mL)”.

B13: IgG1-010-H5L2 (antibody)
heavy: not shown
light: B7 light 2
notes: Humanized, IgG1,kappa
Take B13: the binding result with human CD37 [1] is given as “binds”.

B14: IgG1-010-H5L2-E430G (antibody)
heavy: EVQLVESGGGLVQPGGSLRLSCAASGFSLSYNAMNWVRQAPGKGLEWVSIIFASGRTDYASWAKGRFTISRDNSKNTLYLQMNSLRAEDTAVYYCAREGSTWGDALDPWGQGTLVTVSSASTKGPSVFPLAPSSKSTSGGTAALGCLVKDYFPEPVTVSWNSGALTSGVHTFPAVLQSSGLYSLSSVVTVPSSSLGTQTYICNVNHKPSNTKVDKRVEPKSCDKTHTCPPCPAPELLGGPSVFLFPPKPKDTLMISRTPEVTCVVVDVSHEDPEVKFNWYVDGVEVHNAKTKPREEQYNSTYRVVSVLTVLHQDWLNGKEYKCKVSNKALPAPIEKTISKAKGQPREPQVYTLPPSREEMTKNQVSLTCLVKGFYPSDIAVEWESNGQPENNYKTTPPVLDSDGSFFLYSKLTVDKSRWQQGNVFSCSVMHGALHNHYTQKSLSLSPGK
light: B7 light 2
notes: IgG1,kappa with E430G
As for B14, the binding result with human CD37 [1] and in the experiment with cynomolgus monkey CD37 [2] was “binds” each time.

B15: IgG1-37.3 (antibody)
heavy: not shown
light: DIQMTQSPASLSVSVGETVTITCRASENIRSNLAWYQQKQGKSPQLLVNVATNLADGVPSRFSGSGSGTQYSLKINSLQSEDFGTYYCQHYWGTTWTFGGGTKLEIKRTVAAPSVFIFPPSDEQLKSGTASVVCLLNNFYPREAKVQWKVDNALQSGNSQESVTEQDSKDSTYSLSSTLTLSKADYEKHKVYACEVTHQGLSSPVTKSFNRGEC
notes: IgG1,kappa
In the case of B15, the binding result with human CD37 [1] is on record as “binds”.

B16: IgG1-37.3-E430G (antibody)
heavy: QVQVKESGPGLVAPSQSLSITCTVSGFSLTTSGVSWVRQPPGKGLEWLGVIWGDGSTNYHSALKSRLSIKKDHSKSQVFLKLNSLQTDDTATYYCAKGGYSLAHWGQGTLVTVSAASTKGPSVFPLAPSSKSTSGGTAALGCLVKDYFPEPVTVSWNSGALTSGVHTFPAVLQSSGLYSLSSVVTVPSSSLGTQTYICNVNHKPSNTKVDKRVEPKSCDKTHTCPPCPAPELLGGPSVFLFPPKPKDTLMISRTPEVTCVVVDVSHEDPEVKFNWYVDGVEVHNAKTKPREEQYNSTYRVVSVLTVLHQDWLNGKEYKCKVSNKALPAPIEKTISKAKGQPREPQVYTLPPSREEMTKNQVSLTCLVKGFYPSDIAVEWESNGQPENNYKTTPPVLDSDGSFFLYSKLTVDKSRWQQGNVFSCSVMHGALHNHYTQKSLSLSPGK
light: B15 light
notes: IgG1,kappa with E430G
As for B16, the binding result in the experiment with human CD37 [1] is on record as “binds”.
